The text below walks through data of WO2013015821A1.

The target of experiment [1] is TCblR with the cytoplasmic tail deleted, membrane-anchored on HEK293 cells (human) (UniProt Q9NPF0). In words: TC-[57Co]Cbl on HEK293 cells expressing TCblR with the cytoplasmic tail deleted, surface counts released by trypsin/EDTA.
Experiment [2] concerns the target human transcobalamin receptor (TCblR/CD320), full length, on cells (human) (UniProt Q9NPF0). Kind of experiment: TC-[57Co]Cbl on normal and TCblR overexpressing HEK 293 cells, 1 hour at 37°C, surface counts released by trypsin/EDTA.

Sequence of UniProt Q9NPF0 (Q9NPF0 36-282 limits assumed): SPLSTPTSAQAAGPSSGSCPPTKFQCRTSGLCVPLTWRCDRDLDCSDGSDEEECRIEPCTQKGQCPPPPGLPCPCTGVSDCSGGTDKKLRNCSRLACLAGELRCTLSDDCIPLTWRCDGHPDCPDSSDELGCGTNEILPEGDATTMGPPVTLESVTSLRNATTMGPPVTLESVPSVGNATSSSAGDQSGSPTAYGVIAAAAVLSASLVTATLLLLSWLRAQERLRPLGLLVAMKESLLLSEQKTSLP

B1: transcobalamin saturated with cobalamin (TC-Cbl) (ligand, human, UniProt P20062 19-427, looked up)
chain: EMCEIPEMDSHLVEKLGQHLLPWMDRLSLEHLNPSIYVGLRLSSLQAGTKEDLYLHSLKLGYQQCLLGSAFSEDDGDCQGKPSMGQLALYLLALRANCEFVRGHKGDRLVSQLKWFLEDEKRAIGHDHKGHPHTSYYQYGLGILALCLHQKRVHDSVVDKLLYAVEPFHQGHHSVDTAAMAGLAFTCLKRSNFNPGRRQRITMAIRTVREEILKAQTPEGHFGNVYSTPLALQFLMTSPMRGAELGTACLKARVALLASLQDGAFQNALMISQLLPVLNHKTYIDLIFPDCLAPRVMLEPAAETIPQTQEIISVTLQVLSLLPPYRQSISVLAGSTVEDVLKKAHELGGFTYETQASLSGPYLTSVMGKAAGEREFWQLLRDPNTPLLQGIADYRPKDGETIELRLVSW
modifications: cobalamin bound non-covalently ([57Co]Cbl in the radio assays)
B1: the % of the TCblR-bound radiolabel remaining on the cell surface in experiment [1] worked out at 80%. In addition, the % of the radiolabel on the membrane in experiment [2] was 37 to 43%.
